The target in this test is T1, fatty acid synthase (FAS) from Saccharomyces cerevisiae, beta subunit (forms the beta-domes) (Saccharomyces cerevisiae, UniProt P07149 1-2051).
T1 construct: Fatty acid synthase subunit beta, Saccharomyces cerevisiae; also called yeast FAS
As to the kind of experiment: cryo-EM structure; single-particle cryo-EM of purified FAS complex (0.2 mg/ml) on hydrophilized graphene grids; maps at 4.8 Å (C1) and 4.0 Å (D3 symmetry). The conditions noted are these: both partners purified.

Here are results for one molecule from paper PMC6443348, “Protein denaturation at the air-water interface and how to prevent it” (eLife, 2019).

T1 sequence (P07149 whole entry): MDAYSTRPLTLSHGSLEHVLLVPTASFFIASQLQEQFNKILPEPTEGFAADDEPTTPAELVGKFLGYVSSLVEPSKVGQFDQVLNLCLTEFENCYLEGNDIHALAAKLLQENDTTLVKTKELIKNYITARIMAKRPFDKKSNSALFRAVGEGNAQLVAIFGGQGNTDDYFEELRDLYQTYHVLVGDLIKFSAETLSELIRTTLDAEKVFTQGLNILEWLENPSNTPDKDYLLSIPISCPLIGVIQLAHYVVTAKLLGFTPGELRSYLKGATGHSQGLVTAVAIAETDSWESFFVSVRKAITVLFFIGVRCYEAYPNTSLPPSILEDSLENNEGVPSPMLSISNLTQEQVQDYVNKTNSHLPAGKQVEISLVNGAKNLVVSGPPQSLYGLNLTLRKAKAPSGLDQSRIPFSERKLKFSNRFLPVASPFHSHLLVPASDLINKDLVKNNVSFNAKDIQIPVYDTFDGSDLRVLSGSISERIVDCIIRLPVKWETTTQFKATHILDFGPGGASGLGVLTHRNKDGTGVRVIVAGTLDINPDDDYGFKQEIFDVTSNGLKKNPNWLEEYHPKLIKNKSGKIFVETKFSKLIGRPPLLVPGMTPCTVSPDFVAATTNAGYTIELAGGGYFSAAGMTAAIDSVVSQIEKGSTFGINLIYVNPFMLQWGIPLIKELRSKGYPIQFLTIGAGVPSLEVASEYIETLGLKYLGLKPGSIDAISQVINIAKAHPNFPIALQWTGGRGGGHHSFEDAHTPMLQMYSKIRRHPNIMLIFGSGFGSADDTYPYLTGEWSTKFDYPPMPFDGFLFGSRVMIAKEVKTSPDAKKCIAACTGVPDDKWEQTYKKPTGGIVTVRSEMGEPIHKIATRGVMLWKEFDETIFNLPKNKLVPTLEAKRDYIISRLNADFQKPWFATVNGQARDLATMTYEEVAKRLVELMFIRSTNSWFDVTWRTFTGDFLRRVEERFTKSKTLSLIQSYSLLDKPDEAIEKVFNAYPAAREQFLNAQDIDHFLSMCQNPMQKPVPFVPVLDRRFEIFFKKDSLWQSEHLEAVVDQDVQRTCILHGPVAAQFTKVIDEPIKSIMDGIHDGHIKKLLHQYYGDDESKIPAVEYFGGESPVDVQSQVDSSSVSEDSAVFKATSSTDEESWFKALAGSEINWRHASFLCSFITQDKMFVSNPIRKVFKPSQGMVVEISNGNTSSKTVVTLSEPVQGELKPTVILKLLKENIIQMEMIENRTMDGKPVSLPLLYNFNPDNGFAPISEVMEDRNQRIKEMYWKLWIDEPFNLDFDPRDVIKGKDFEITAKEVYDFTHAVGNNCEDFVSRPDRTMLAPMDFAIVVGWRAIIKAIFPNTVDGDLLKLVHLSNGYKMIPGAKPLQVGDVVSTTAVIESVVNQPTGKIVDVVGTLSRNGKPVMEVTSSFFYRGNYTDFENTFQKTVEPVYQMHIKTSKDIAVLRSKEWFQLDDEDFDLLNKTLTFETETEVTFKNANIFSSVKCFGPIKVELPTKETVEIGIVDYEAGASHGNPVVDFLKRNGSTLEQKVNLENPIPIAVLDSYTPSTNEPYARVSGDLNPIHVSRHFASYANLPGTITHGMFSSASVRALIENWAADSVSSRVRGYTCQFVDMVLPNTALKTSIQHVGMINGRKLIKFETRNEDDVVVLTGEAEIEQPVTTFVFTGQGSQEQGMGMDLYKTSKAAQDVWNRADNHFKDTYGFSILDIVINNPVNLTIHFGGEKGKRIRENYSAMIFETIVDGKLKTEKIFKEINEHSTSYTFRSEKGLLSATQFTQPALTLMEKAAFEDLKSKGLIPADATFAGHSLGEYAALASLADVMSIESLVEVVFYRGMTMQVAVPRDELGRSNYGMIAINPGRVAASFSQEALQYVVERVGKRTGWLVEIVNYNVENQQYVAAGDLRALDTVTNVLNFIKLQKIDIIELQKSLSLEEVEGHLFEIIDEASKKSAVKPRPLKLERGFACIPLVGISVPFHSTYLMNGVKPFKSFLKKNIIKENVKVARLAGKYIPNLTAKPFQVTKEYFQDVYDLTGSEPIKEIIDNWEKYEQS

B1: fatty acid synthase (FAS) from Saccharomyces cerevisiae, alpha subunit (forms the alpha wheel) (natural protein, UniProt P19097 1-1887, looked up)
chain: MKPEVEQELAHILLTELLAYQFASPVRWIETQDVFLKDFNTERVVEIGPSPTLAGMAQRTLKNKYESYDAALSLHREILCYSKDAKEIYYTPDPSELAAKEEPAKEEAPAPTPAASAPAPAAAAPAPVAAAAPAAAAAEIADEPVKASLLLHVLVAHKLKKSLDSIPMSKTIKDLVGGKSTVQNEILGDLGKEFGTTPEKPEETPLEELAETFQDTFSGALGKQSSSLLSRLISSKMPGGFTITVARKYLQTRWGLPSGRQDGVLLVALSNEPAARLGSEADAKAFLDSMAQKYASIVGVDLSSAASASGAAGAGAAAGAAMIDAGALEEITKDHKVLARQQLQVLARYLKMDLDNGERKFLKEKDTVAELQAQLDYLNAELGEFFVNGVATSFSRKKARTFDSSWNWAKQSLLSLYFEIIHGVLKNVDREVVSEAINIMNRSNDALIKFMEYHISNTDETKGENYQLVKTLGEQLIENCKQVLDVDPVYKDVAKPTGPKTAIDKNGNITYSEEPREKVRKLSQYVQEMALGGPITKESQPTIEEDLTRVYKAISAQADKQDISSSTRVEFEKLYSDLMKFLESSKEIDPSQTTQLAGMDVEDALDKDSTKEVASLPNKSTISKTVSSTIPRETIPFLHLRKKTPAGDWKYDRQLSSLFLDGLEKAAFNGVTFKDKYVLITGAGKGSIGAEVLQGLLQGGAKVVVTTSRFSKQVTDYYQSIYAKYGAKGSTLIVVPFNQGSKQDVEALIEFIYDTEKNGGLGWDLDAIIPFAAIPEQGIELEHIDSKSEFAHRIMLTNILRMMGCVKKQKSARGIETRPAQVILPMSPNHGTFGGDGMYSESKLSLETLFNRWHSESWANQLTVCGAIIGWTRGTGLMSANNIIAEGIEKMGVRTFSQKEMAFNLLGLLTPEVVELCQKSPVMADLNGGLQFVPELKEFTAKLRKELVETSEVRKAVSIETALEHKVVNGNSADAAYAQVEIQPRANIQLDFPELKPYKQVKQIAPAELEGLLDLERVIVVTGFAEVGPWGSARTRWEMEAFGEFSLEGCVEMAWIMGFISYHNGNLKGRPYTGWVDSKTKEPVDDKDVKAKYETSILEHSGIRLIEPELFNGYNPEKKEMIQEVIVEEDLEPFEASKETAEQFKHQHGDKVDIFEIPETGEYSVKLLKGATLYIPKALRFDRLVAGQIPTGWNAKTYGISDDIISQVDPITLFVLVSVVEAFIASGITDPYEMYKYVHVSEVGNCSGSGMGGVSALRGMFKDRFKDEPVQNDILQESFINTMSAWVNMLLISSSGPIKTPVGACATSVESVDIGVETILSGKARICIVGGYDDFQEEGSFEFGNMKATSNTLEEFEHGRTPAEMSRPATTTRNGFMEAQGAGIQIIMQADLALKMGVPIYGIVAMAATATDKIGRSVPAPGKGILTTAREHHSSVKYASPNLNMKYRKRQLVTREAQIKDWVENELEALKLEAEEIPSEDQNEFLLERTREIHNEAESQLRAAQQQWGNDFYKRDPRIAPLRGALATYGLTIDDLGVASFHGTSTKANDKNESATINEMMKHLGRSEGNPVIGVFQKFLTGHPKGAAGAWMMNGALQILNSGIIPGNRNADNVDKILEQFEYVLYPSKTLKTDGVRAVSITSFGFGQKGGQAIVVHPDYLYGAITEDRYNEYVAKVSAREKSAYKFFHNGMIYNKLFVSKEHAPYTDELEEDVYLDPLARVSKDKKSGSLTFNSKNIQSKDSYINANTIETAKMIENMTKEKVSNGGVGVDVELITSINVENDTFIERNFTPQEIEYCSAQPSVQSSFAGTWSAKEAVFKSLGVKSLGGGAALKDIEIVRVNKNAPAVELHGNAKKAAEEAGVTDVKVSISHDDLQAVAVAVSTKK
notes: Fatty acid synthase subunit alpha, Saccharomyces cerevisiae; also called yeast FAS
For B1, the binding result is given as “binds”.
